{
  "source": "patent US20220204613A1",
  "about": "(D 10 THERAPEUTICS, published 2022)",
  "binders": {"B1": {"name": "VH2+VL3 (antibody, human IgG4 S228P, kappa, V domains shown)", "VH": "QVQLVQSGAEVKKPGASVKVSCKASGYTFTSSVIHWVRQAPGQGLEWLGYINPYSDGTKFNEKCKIRATMTSDTSISTAYMELSRLRSDDTAVYYCARGLIGTRYDSWFAYWGQGTLVTVSS", "VL": "DIQMTQSPSSLSASVGDRVTITCRTSQDINNYLNWYQQKPGKAVKLLIYYTSRLHSGVPSRFSGSGSGTDYTFTISSLQPEDIATYFCQQGNTLPYTFGGGTKVEIKR", "notes": "Humanized IgG, hIgG4 CH (S228P) and human kappa CL; leader residues 1-19 of each entry left out; Tested from supernatant; also called U0959FD090-VH2 + U0959FD090-VL3"}, "B2": {"name": "VH1+VL4 (antibody, human IgG4 S228P, kappa, V domains shown)", "VH": "B1 VH with L48M, A68V, S72R", "VL": "B1 VL with T22S, A43T", "notes": "Humanized IgG, hIgG4 CH (S228P) and human kappa CL; leader residues 1-19 of each entry left out; Tested from supernatant; also called U0959FD090-VH1 + U0959FD090-VL4"}, "B3": {"name": "VH3+VL3 (antibody, human IgG4 S228P, kappa, V domains shown)", "VH": "B1 VH with R38K, A68V, M70L", "VL": "B1 VL", "notes": "Humanized IgG, hIgG4 CH (S228P) and human kappa CL; leader residues 1-19 of each entry left out; Tested from supernatant; also called U0959FD090-VH3 + U0959FD090-VL3"}, "B4": {"name": "VH3+VL2 (antibody, human IgG4 S228P, kappa, V domains shown)", "VH": "B1 VH with R38K, A68V, M70L", "VL": "B1 VL with Y71F", "notes": "Humanized IgG, hIgG4 CH (S228P) and human kappa CL; leader residues 1-19 of each entry left out; Tested from supernatant; also called U0959FD090-VH3 + U0959FD090-VL2"}, "B5": {"name": "VH4+VL2 (antibody, human IgG4 S228P, kappa, V domains shown)", "VH": "B1 VH with R38K, T74K", "VL": "B1 VL with Y71F", "notes": "Humanized IgG, hIgG4 CH (S228P) and human kappa CL; leader residues 1-19 of each entry left out; Tested from supernatant; also called U0959FD090-VH4 + U0959FD090-VL2"}, "B6": {"name": "VH4+VL3 (antibody, human IgG4 S228P, kappa, V domains shown)", "VH": "B1 VH with R38K, T74K", "VL": "B1 VL", "notes": "Humanized IgG, hIgG4 CH (S228P) and human kappa CL; leader residues 1-19 of each entry left out; Tested from supernatant; also called U0959FD090-VH4 + U0959FD090-VL3"}, "B7": {"name": "VH1+VL2 (antibody, human IgG4 S228P, kappa, V domains shown)", "VH": "B1 VH with L48M, A68V, S72R", "VL": "B1 VL with Y71F", "notes": "Humanized IgG, hIgG4 CH (S228P) and human kappa CL; leader residues 1-19 of each entry left out; Tested from supernatant; also called U0959FD090-VH1 + U0959FD090-VL2"}, "B8": {"name": "VH4+VL1 (antibody, human IgG4 S228P, kappa, V domains shown)", "VH": "B1 VH with R38K, T74K", "VL": "B1 VL with V44P, Y71F, F87Y", "notes": "Humanized IgG, hIgG4 CH (S228P) and human kappa CL; leader residues 1-19 of each entry left out; Tested from supernatant; also called U0959FD090-VH4 + U0959FD090-VL1"}, "B9": {"name": "VH1-PTM+VL2 (antibody, human IgG4 S228P, kappa, V domains shown)", "VH": "B1 VH with L48M, D56E, C64S, A68V, S72R", "VL": "B1 VL with Y71F", "notes": "Purified humanized IgG with PTM sites removed, hIgG4 CH (S228P) and human kappa CL; leader residues 1-19 of each entry left out; also called U0959FD090-VH1-PTM + U0959FD090-VL2"}, "B10": {"name": "VH2+VL1 (antibody, human IgG4 S228P, kappa, V domains shown)", "VH": "B1 VH", "VL": "B1 VL with V44P, Y71F, F87Y", "notes": "Humanized IgG, hIgG4 CH (S228P) and human kappa CL; leader residues 1-19 of each entry left out; Tested from supernatant; also called U0959FD090-VH2 + U0959FD090-VL1"}, "B11": {"name": "VH1+VL3 (antibody, human IgG4 S228P, kappa, V domains shown)", "VH": "B1 VH with L48M, A68V, S72R", "VL": "B1 VL", "notes": "Humanized IgG, hIgG4 CH (S228P) and human kappa CL; leader residues 1-19 of each entry left out; Tested from supernatant; also called U0959FD090-VH1 + U0959FD090-VL3"}, "B12": {"name": "VH3+VL1 (antibody, human IgG4 S228P, kappa, V domains shown)", "VH": "B1 VH with R38K, A68V, M70L", "VL": "B1 VL with V44P, Y71F, F87Y", "notes": "Humanized IgG, hIgG4 CH (S228P) and human kappa CL; leader residues 1-19 of each entry left out; Tested from supernatant; also called U0959FD090-VH3 + U0959FD090-VL1"}, "B13": {"name": "VH2+VL4 (antibody, human IgG4 S228P, kappa, V domains shown)", "VH": "B1 VH", "VL": "B1 VL with T22S, A43T", "notes": "Humanized IgG, hIgG4 CH (S228P) and human kappa CL; leader residues 1-19 of each entry left out; Tested from supernatant; also called U0959FD090-VH2 + U0959FD090-VL4"}},
  "key": {"[1]": {"molecular_target": "T1, human CD47 protein (human, UniProt Q08722 19-139, limits assumed)", "T1 construct": "also called human CD47 antigen", "T1 sequence (Q08722 19-139 limits assumed)": "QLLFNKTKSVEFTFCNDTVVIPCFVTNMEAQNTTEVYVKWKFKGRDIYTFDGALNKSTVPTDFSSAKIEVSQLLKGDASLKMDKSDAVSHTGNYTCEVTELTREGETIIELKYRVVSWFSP", "test": "SPR Biacore, supernatant antibody Fc-captured, human CD47 analyte 5 nM", "procedure": "Production and affinity ranking of humanized antibodies. The designed plasmids of heavy chain and light chain were sent for 3 mL transfection following GenScript's SOP. For affinity ranking, Antibodies were captured on the sensor chip through Fc capture method. Human CD47 protein was used as the analyte. The surface was regenerated before the injection of another antibody. The process was repeated until all antibodies were analyzed. The off-rates of antibodies were obtained from fitting the experimental data locally to 1:1 interaction model using the Biacore® T200/8K evaluation software. The antibodies were ranked by their dissociation rate constants (off-rates, kd)."}, "[2]": {"molecular_target": "T1, human CD47 protein", "test": "SPR Biacore, purified IgG Fc-captured, human CD47 analyte 0.3125-10 nM", "source_text": "Affinity measurement of purified humanized IgGs. The affinity of purified antibody binding to human CD47 was individually determined using a Surface Plasmon Resonance (SPR) biosensor, Biacore® T200/8K (GE Healthcare). Antibodies were captured on the sensor chip through Fc capture method. Human CD47 protein was used as the analyte. The data of dissociation (kd) and association (ka) rate constants were obtained using Biacore T200/8K evaluation software. The equilibrium dissociation constants (KD) were calculated from the ratio of kd over ka."}},
  "note": "Numbering of substitutions follows the chain as printed. Names and notes keep the numbering of the source.",
  "data": [
    {"binder": "B1", "values": [
      {"measurement": "Kd", "setting": "[1]", "result": 0.597, "unit": "nM"},
      {"measurement": "koff", "setting": "[1]", "result": 0.00348, "unit": "s⁻¹"},
      {"measurement": "kon", "setting": "[1]", "result": "5.83e+06", "unit": "M⁻¹ s⁻¹"}
    ]},
    {"binder": "B2", "values": [
      {"measurement": "Kd", "setting": "[1]", "result": 0.266, "unit": "nM"},
      {"measurement": "koff", "setting": "[1]", "result": 0.00128, "unit": "s⁻¹"},
      {"measurement": "kon", "setting": "[1]", "result": "4.8e+06", "unit": "M⁻¹ s⁻¹"}
    ]},
    {"binder": "B3", "values": [
      {"measurement": "Kd", "setting": "[1]", "result": 0.602, "unit": "nM"},
      {"measurement": "koff", "setting": "[1]", "result": 0.00312, "unit": "s⁻¹"},
      {"measurement": "kon", "setting": "[1]", "result": "5.18e+06", "unit": "M⁻¹ s⁻¹"}
    ]},
    {"binder": "B4", "values": [
      {"measurement": "Kd", "setting": "[1]", "result": 0.638, "unit": "nM"},
      {"measurement": "koff", "setting": "[1]", "result": 0.00378, "unit": "s⁻¹"},
      {"measurement": "kon", "setting": "[1]", "result": "5.93e+06", "unit": "M⁻¹ s⁻¹"}
    ]},
    {"binder": "B5", "values": [
      {"measurement": "Kd", "setting": "[1]", "result": 0.772, "unit": "nM"},
      {"measurement": "koff", "setting": "[1]", "result": 0.00335, "unit": "s⁻¹"},
      {"measurement": "kon", "setting": "[1]", "result": "4.34e+06", "unit": "M⁻¹ s⁻¹"}
    ]},
    {"binder": "B6", "values": [
      {"measurement": "Kd", "setting": "[1]", "result": 0.591, "unit": "nM"},
      {"measurement": "koff", "setting": "[1]", "result": 0.00287, "unit": "s⁻¹"},
      {"measurement": "kon", "setting": "[1]", "result": "4.85e+06", "unit": "M⁻¹ s⁻¹"}
    ]},
    {"binder": "B7", "values": [
      {"measurement": "Kd", "setting": "[1]", "result": 0.368, "unit": "nM"},
      {"measurement": "koff", "setting": "[1]", "result": 0.00159, "unit": "s⁻¹"},
      {"measurement": "kon", "setting": "[1]", "result": "4.32e+06", "unit": "M⁻¹ s⁻¹"}
    ]},
    {"binder": "B8", "values": [
      {"measurement": "Kd", "setting": "[1]", "result": 0.839, "unit": "nM"},
      {"measurement": "koff", "setting": "[1]", "result": 0.005, "unit": "s⁻¹"},
      {"measurement": "kon", "setting": "[1]", "result": "5.96e+06", "unit": "M⁻¹ s⁻¹"}
    ]},
    {"binder": "B9", "values": [
      {"measurement": "Kd", "setting": "[2]", "result": 0.556, "unit": "nM"},
      {"measurement": "koff", "setting": "[2]", "result": 0.00193, "unit": "s⁻¹"},
      {"measurement": "kon", "setting": "[2]", "result": "3.46e+06", "unit": "M⁻¹ s⁻¹"}
    ]},
    {"binder": "B10", "values": [
      {"measurement": "Kd", "setting": "[1]", "result": 1, "unit": "nM"},
      {"measurement": "koff", "setting": "[1]", "result": 0.00648, "unit": "s⁻¹"},
      {"measurement": "kon", "setting": "[1]", "result": "6.47e+06", "unit": "M⁻¹ s⁻¹"}
    ]},
    {"binder": "B11", "values": [
      {"measurement": "Kd", "setting": "[1]", "result": 0.274, "unit": "nM"},
      {"measurement": "koff", "setting": "[1]", "result": 0.00137, "unit": "s⁻¹"},
      {"measurement": "kon", "setting": "[1]", "result": "5e+06", "unit": "M⁻¹ s⁻¹"}
    ]},
    {"binder": "B12", "values": [
      {"measurement": "Kd", "setting": "[1]", "result": 0.803, "unit": "nM"},
      {"measurement": "koff", "setting": "[1]", "result": 0.00553, "unit": "s⁻¹"},
      {"measurement": "kon", "setting": "[1]", "result": "6.89e+06", "unit": "M⁻¹ s⁻¹"}
    ]},
    {"binder": "B13", "values": [
      {"measurement": "Kd", "setting": "[1]", "result": 0.585, "unit": "nM"},
      {"measurement": "koff", "setting": "[1]", "result": 0.00332, "unit": "s⁻¹"},
      {"measurement": "kon", "setting": "[1]", "result": "5.67e+06", "unit": "M⁻¹ s⁻¹"}
    ]}
  ]
}
